{"source": "patent US7256012B2", "about": "“Fluorogenic protease substrates based on dye-dimerization” (3M Innovative Properties Company, priority 1997, dated 2007)", "target": "T1, trypsin (Bos taurus, UniProt P00760)", "T1 construct": "gene PRSS1", "T1 sequence (P00760 24-246)": "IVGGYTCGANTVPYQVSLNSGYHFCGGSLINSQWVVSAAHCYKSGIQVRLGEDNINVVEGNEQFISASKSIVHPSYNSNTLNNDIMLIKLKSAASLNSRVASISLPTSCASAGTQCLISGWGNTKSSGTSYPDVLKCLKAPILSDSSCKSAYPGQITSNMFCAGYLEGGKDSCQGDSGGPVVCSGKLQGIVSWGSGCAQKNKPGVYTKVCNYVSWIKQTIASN", "assay": "Hydrolysis of fluorogenic protease substrate by purified enzyme (trypsin), fluorescence intensity", "assay_type": "biochemical", "details": "for Average ratio w/ trypsin to w/o trypsin: average over emission 570-585 nm", "protocol": "Enzymatic hydrolysis of the substrate from Example 1 was carried out in 50 mM carbonate buffer, pH 8.9 at room temperature. Fluorescence intensity of the solution prior to treatment with trypsin and after treatment with trypsin is shown in Table 1, for excitation wavelengths of 360 nm, 522 nm, 530 nm, and 553 nm, respectively. […] This is a characteristic of dye dimerization or stacking, as described above. […] Both the fluorescence and absorption results provided convincing evidence that ground-state interactions existed between dye molecules in the conjugate and became diminished after enzymatic cleavage.", "key": {"[1]": {"details": "Excitation 360 nm, emission 570 nm"}, "[2]": {"details": "Excitation 360 nm, emission 571 nm"}, "[3]": {"details": "Excitation 360 nm, emission 572 nm"}, "[4]": {"details": "Excitation 360 nm, emission 573 nm"}, "[5]": {"details": "Excitation 360 nm, emission 574 nm"}, "[6]": {"details": "Excitation 360 nm, emission 575 nm"}, "[7]": {"details": "Excitation 360 nm, emission 576 nm"}, "[8]": {"details": "Excitation 360 nm, emission 577 nm"}, "[9]": {"details": "Excitation 360 nm, emission 578 nm"}, "[10]": {"details": "Excitation 360 nm, emission 579 nm"}, "[11]": {"details": "Excitation 360 nm, emission 580 nm"}, "[12]": {"details": "Excitation 360 nm, emission 581 nm"}, "[13]": {"details": "Excitation 360 nm, emission 582 nm"}, "[14]": {"details": "Excitation 360 nm, emission 583 nm"}, "[15]": {"details": "Excitation 360 nm, emission 584 nm"}, "[16]": {"details": "Excitation 360 nm, emission 585 nm"}, "[17]": {"details": "Excitation 522 nm, emission 570 nm"}, "[18]": {"details": "Excitation 522 nm, emission 571 nm"}, "[19]": {"details": "Excitation 522 nm, emission 572 nm"}, "[20]": {"details": "Excitation 522 nm, emission 573 nm"}, "[21]": {"details": "Excitation 522 nm, emission 574 nm"}, "[22]": {"details": "Excitation 522 nm, emission 575 nm"}, "[23]": {"details": "Excitation 522 nm, emission 576 nm"}, "[24]": {"details": "Excitation 522 nm, emission 577 nm"}, "[25]": {"details": "Excitation 522 nm, emission 578 nm"}, "[26]": {"details": "Excitation 522 nm, emission 579 nm"}, "[27]": {"details": "Excitation 522 nm, emission 580 nm"}, "[28]": {"details": "Excitation 522 nm, emission 581 nm"}, "[29]": {"details": "Excitation 522 nm, emission 582 nm"}, "[30]": {"details": "Excitation 522 nm, emission 583 nm"}, "[31]": {"details": "Excitation 522 nm, emission 584 nm"}, "[32]": {"details": "Excitation 522 nm, emission 585 nm"}}}
{"substance": "TMR-Val-Pro-Arg-Gly-Lys-TMR (XPRGX; not fully specified; TMR dye at both ends) [T-VPRGK-T]", "values": [{"measurement": "Average ratio w/ trypsin to w/o trypsin", "setting": "Excitation 360 nm", "value": 26}, {"measurement": "Fluorescence intensity w/ trypsin", "setting": "[1]", "value": 8625}, {"measurement": "Fluorescence intensity w/o trypsin", "setting": "[1]", "value": 319}, {"measurement": "ratio w/ trypsin to w/o trypsin", "setting": "[1]", "value": 27}, {"measurement": "Fluorescence intensity w/ trypsin", "setting": "[2]", "value": 8817}, {"measurement": "Fluorescence intensity w/o trypsin", "setting": "[2]", "value": 347}, {"measurement": "ratio w/ trypsin to w/o trypsin", "setting": "[2]", "value": 25}, {"measurement": "Fluorescence intensity w/ trypsin", "setting": "[3]", "value": 9322}, {"measurement": "Fluorescence intensity w/o trypsin", "setting": "[3]", "value": 369}, {"measurement": "ratio w/ trypsin to w/o trypsin", "setting": "[3]", "value": 25}, {"measurement": "Fluorescence intensity w/ trypsin", "setting": "[4]", "value": 9189}, {"measurement": "Fluorescence intensity w/o trypsin", "setting": "[4]", "value": 365}, {"measurement": "ratio w/ trypsin to w/o trypsin", "setting": "[4]", "value": 25}, {"measurement": "Fluorescence intensity w/ trypsin", "setting": "[5]", "value": 9629}, {"measurement": "Fluorescence intensity w/o trypsin", "setting": "[5]", "value": 354}, {"measurement": "ratio w/ trypsin to w/o trypsin", "setting": "[5]", "value": 27}, {"measurement": "Fluorescence intensity w/ trypsin", "setting": "[6]", "value": 9719}, {"measurement": "Fluorescence intensity w/o trypsin", "setting": "[6]", "value": 410}, {"measurement": "ratio w/ trypsin to w/o trypsin", "setting": "[6]", "value": 24}, {"measurement": "Fluorescence intensity w/ trypsin", "setting": "[7]", "value": 9759}, {"measurement": "Fluorescence intensity w/o trypsin", "setting": "[7]", "value": 401}, {"measurement": "ratio w/ trypsin to w/o trypsin", "setting": "[7]", "value": 24}, {"measurement": "Fluorescence intensity w/ trypsin", "setting": "[8]", "value": 9776}, {"measurement": "Fluorescence intensity w/o trypsin", "setting": "[8]", "value": 378}, {"measurement": "ratio w/ trypsin to w/o trypsin", "setting": "[8]", "value": 26}, {"measurement": "Fluorescence intensity w/ trypsin", "setting": "[9]", "value": 9981}, {"measurement": "Fluorescence intensity w/o trypsin", "setting": "[9]", "value": 379}, {"measurement": "ratio w/ trypsin to w/o trypsin", "setting": "[9]", "value": 26}, {"measurement": "Fluorescence intensity w/ trypsin", "setting": "[10]", "value": 9872}, {"measurement": "Fluorescence intensity w/o trypsin", "setting": "[10]", "value": 392}, {"measurement": "ratio w/ trypsin to w/o trypsin", "setting": "[10]", "value": 25}, {"measurement": "Fluorescence intensity w/ trypsin", "setting": "[11]", "value": 9788}, {"measurement": "Fluorescence intensity w/o trypsin", "setting": "[11]", "value": 361}, {"measurement": "ratio w/ trypsin to w/o trypsin", "setting": "[11]", "value": 27}, {"measurement": "Fluorescence intensity w/ trypsin", "setting": "[12]", "value": 9960}, {"measurement": "Fluorescence intensity w/o trypsin", "setting": "[12]", "value": 375}, {"measurement": "ratio w/ trypsin to w/o trypsin", "setting": "[12]", "value": 27}, {"measurement": "Fluorescence intensity w/ trypsin", "setting": "[13]", "value": 9783}, {"measurement": "Fluorescence intensity w/o trypsin", "setting": "[13]", "value": 376}, {"measurement": "ratio w/ trypsin to w/o trypsin", "setting": "[13]", "value": 26}, {"measurement": "Fluorescence intensity w/ trypsin", "setting": "[14]", "value": 9591}, {"measurement": "Fluorescence intensity w/o trypsin", "setting": "[14]", "value": 347}, {"measurement": "ratio w/ trypsin to w/o trypsin", "setting": "[14]", "value": 28}, {"measurement": "Fluorescence intensity w/ trypsin", "setting": "[15]", "value": 9387}, {"measurement": "Fluorescence intensity w/o trypsin", "setting": "[15]", "value": 385}, {"measurement": "ratio w/ trypsin to w/o trypsin", "setting": "[15]", "value": 24}, {"measurement": "Fluorescence intensity w/ trypsin", "setting": "[16]", "value": 9427}, {"measurement": "Fluorescence intensity w/o trypsin", "setting": "[16]", "value": 353}, {"measurement": "ratio w/ trypsin to w/o trypsin", "setting": "[16]", "value": 27}, {"measurement": "Average ratio w/ trypsin to w/o trypsin", "setting": "Excitation 522 nm", "value": 28}, {"measurement": "Fluorescence intensity w/ trypsin", "setting": "[17]", "value": 40193}, {"measurement": "Fluorescence intensity w/o trypsin", "setting": "[17]", "value": 1378}, {"measurement": "ratio w/ trypsin to w/o trypsin", "setting": "[17]", "value": 29}, {"measurement": "Fluorescence intensity w/ trypsin", "setting": "[18]", "value": 41416}, {"measurement": "Fluorescence intensity w/o trypsin", "setting": "[18]", "value": 1525}, {"measurement": "ratio w/ trypsin to w/o trypsin", "setting": "[18]", "value": 27}, {"measurement": "Fluorescence intensity w/ trypsin", "setting": "[19]", "value": 42506}, {"measurement": "Fluorescence intensity w/o trypsin", "setting": "[19]", "value": 1480}, {"measurement": "ratio w/ trypsin to w/o trypsin", "setting": "[19]", "value": 29}, {"measurement": "Fluorescence intensity w/ trypsin", "setting": "[20]", "value": 43406}, {"measurement": "Fluorescence intensity w/o trypsin", "setting": "[20]", "value": 1509}, {"measurement": "ratio w/ trypsin to w/o trypsin", "setting": "[20]", "value": 29}, {"measurement": "Fluorescence intensity w/ trypsin", "setting": "[21]", "value": 44241}, {"measurement": "Fluorescence intensity w/o trypsin", "setting": "[21]", "value": 1645}, {"measurement": "ratio w/ trypsin to w/o trypsin", "setting": "[21]", "value": 27}, {"measurement": "Fluorescence intensity w/ trypsin", "setting": "[22]", "value": 45037}, {"measurement": "Fluorescence intensity w/o trypsin", "setting": "[22]", "value": 1643}, {"measurement": "ratio w/ trypsin to w/o trypsin", "setting": "[22]", "value": 27}, {"measurement": "Fluorescence intensity w/ trypsin", "setting": "[23]", "value": 45519}, {"measurement": "Fluorescence intensity w/o trypsin", "setting": "[23]", "value": 1587}, {"measurement": "ratio w/ trypsin to w/o trypsin", "setting": "[23]", "value": 29}, {"measurement": "Fluorescence intensity w/ trypsin", "setting": "[24]", "value": 45648}, {"measurement": "Fluorescence intensity w/o trypsin", "setting": "[24]", "value": 1672}, {"measurement": "ratio w/ trypsin to w/o trypsin", "setting": "[24]", "value": 27}, {"measurement": "Fluorescence intensity w/ trypsin", "setting": "[25]", "value": 45980}, {"measurement": "Fluorescence intensity w/o trypsin", "setting": "[25]", "value": 1629}, {"measurement": "ratio w/ trypsin to w/o trypsin", "setting": "[25]", "value": 28}, {"measurement": "Fluorescence intensity w/ trypsin", "setting": "[26]", "value": 45745}, {"measurement": "Fluorescence intensity w/o trypsin", "setting": "[26]", "value": 1673}, {"measurement": "ratio w/ trypsin to w/o trypsin", "setting": "[26]", "value": 27}, {"measurement": "Fluorescence intensity w/ trypsin", "setting": "[27]", "value": 45757}, {"measurement": "Fluorescence intensity w/o trypsin", "setting": "[27]", "value": 1595}, {"measurement": "ratio w/ trypsin to w/o trypsin", "setting": "[27]", "value": 29}, {"measurement": "Fluorescence intensity w/ trypsin", "setting": "[28]", "value": 44936}, {"measurement": "Fluorescence intensity w/o trypsin", "setting": "[28]", "value": 1665}, {"measurement": "ratio w/ trypsin to w/o trypsin", "setting": "[28]", "value": 27}, {"measurement": "Fluorescence intensity w/ trypsin", "setting": "[29]", "value": 44724}, {"measurement": "Fluorescence intensity w/o trypsin", "setting": "[29]", "value": 1567}, {"measurement": "ratio w/ trypsin to w/o trypsin", "setting": "[29]", "value": 29}, {"measurement": "Fluorescence intensity w/ trypsin", "setting": "[30]", "value": 44076}, {"measurement": "Fluorescence intensity w/o trypsin", "setting": "[30]", "value": 1599}, {"measurement": "ratio w/ trypsin to w/o trypsin", "setting": "[30]", "value": 28}, {"measurement": "Fluorescence intensity w/ trypsin", "setting": "[31]", "value": 43282}, {"measurement": "Fluorescence intensity w/o trypsin", "setting": "[31]", "value": 1601}, {"measurement": "ratio w/ trypsin to w/o trypsin", "setting": "[31]", "value": 27}, {"measurement": "Fluorescence intensity w/ trypsin", "setting": "[32]", "value": 42928}, {"measurement": "Fluorescence intensity w/o trypsin", "setting": "[32]", "value": 1527}, {"measurement": "ratio w/ trypsin to w/o trypsin", "setting": "[32]", "value": 28}]}
